Data reported in PMC12276012, “Molecular mechanisms of biomolecular condensate formation in Drosophila melanogaster siRNA biogenesis”.

Biological target: T1, Loqs-PD 1,2-mut (Drosophila melanogaster, UniProt Q9VJY9-4 1-359, K189A;K190A;K301A;K302A)
T1 sequence: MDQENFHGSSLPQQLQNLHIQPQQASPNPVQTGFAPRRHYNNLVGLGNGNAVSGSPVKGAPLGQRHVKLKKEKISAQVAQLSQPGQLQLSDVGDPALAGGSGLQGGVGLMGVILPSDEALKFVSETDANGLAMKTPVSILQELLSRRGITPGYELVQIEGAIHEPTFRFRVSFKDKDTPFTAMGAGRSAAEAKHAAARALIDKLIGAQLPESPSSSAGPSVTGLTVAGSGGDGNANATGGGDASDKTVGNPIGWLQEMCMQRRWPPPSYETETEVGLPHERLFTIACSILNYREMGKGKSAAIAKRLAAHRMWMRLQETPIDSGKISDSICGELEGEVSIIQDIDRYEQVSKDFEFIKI
Test: EMSA; 400 nM RNA, 400-3200 nM protein; EMSA: 20 mM sodium phosphate pH 6.5, 150 mM NaCl, 15% glycerol, 15 min, 1% agarose 1x TBE; NMR: 20 mM sodium phosphate pH 6.5, PS-I or PS-II buffer (50-500 mM NaCl), 292 K for Loqs-PD deltaC
Details: protein: recombinant; tags: His6-GB1 or His6 tag, cleaved by TEV; label: 3' Cy5; hairpin, 21 bp stem, GUGA loop

GGAGCUUUCAAAAUGAUCUCCGUGAGGAGAUCAUUUUGAAAGCUCC (structured_RNA, 3' pCp-Cy5 ligated (adds one C)) [21 bp hairpin dsRNA, Cy5]
binding result: no binding
